Consider 2 molecules from US20260263521A1, “ANTI-CD200R1 ANTIBODY AND USE THEREOF” (AIMED BIO INC., priority 2023, published 2026).

Residue numbers refer to the chain shown, from its start.

For test [1], the target named is T1, mouse CD200R1 protein (Mus musculus, UniProt Q9ES57).
T1 construct: purchased R&D systems 2554-CD
T1 sequence (Q9ES57 26-326): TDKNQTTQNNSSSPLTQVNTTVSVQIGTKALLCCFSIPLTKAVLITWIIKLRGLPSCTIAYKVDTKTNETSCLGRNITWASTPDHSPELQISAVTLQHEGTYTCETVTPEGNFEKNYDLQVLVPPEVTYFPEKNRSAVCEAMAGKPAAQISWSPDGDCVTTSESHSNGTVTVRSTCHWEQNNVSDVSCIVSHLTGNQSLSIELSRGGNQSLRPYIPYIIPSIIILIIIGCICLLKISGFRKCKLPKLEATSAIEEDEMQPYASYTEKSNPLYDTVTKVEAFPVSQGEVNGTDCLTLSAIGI
Put plainly: ELISA binding to mouse CD200R1. The settings on record: concentrations up to 300 nM. The method, then: (§1) 96-well plates were coated with human CD200R1 (R&D systems, 3414-CD) and mouse CD200R1 protein (R&D systems, 2554-CD) at a concentration of 2 μg/mL at 4° C. for 16 hours and then were blocked with 3% skim milk. The result was treated with the antibodies at concentrations of 300 nM, 60 nM, 12 nM, 2.4 nM, 0.48 nM, 0.096 nM, and 0.0192 nM, and reacted at room temperature for 2 hours.
(§2) The result was washed with PBST and distilled water, the samples were bound with a goat-derived HRP-conjugated anti-human antibody (Invitrogen, 31482, Goat anti-Human IgG F(ab′)2 Secondary Antibody, HRP) for 1 hour at room temperature, and then washed again with PBST and distilled water. Color was developed with a TMB substrate solution (Thermo Scientific, 34029, 1-Step™ TMB-ELISA Ultra Substrate Solution). The color reaction was stopped with stop solution (Invitrogen, SS04, ELISA Stop Solution). The absorbance was measured at an optical density of 450 nm.

Test [2] addresses T2, human CD200R1 (Homo sapiens, UniProt Q8TD46).
T2 sequence (Q8TD46 25-348): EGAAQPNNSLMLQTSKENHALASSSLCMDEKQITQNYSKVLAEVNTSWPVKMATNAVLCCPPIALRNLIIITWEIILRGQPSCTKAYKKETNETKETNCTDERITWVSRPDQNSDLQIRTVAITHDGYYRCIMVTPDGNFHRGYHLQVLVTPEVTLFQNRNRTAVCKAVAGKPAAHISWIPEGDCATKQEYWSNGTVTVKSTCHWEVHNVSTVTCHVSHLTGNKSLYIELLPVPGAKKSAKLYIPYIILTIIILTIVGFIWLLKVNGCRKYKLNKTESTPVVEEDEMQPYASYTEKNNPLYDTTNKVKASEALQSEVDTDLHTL
As to the kind of experiment: ELISA binding to human CD200R1. As to conditions: ELISA, Example 14. The procedure: as §1, §2
Background: An ELISA detects its analyte on a solid surface through an enzyme-linked reagent.

Test [3] concerns the target T3, CD200R1 on U937-CD200R overexpressing cells (Homo sapiens, UniProt Q8TD46).
T3 construct: host or cells: U937 (CRL-1593.2)
T3 sequence (Q8TD46 25-348): T2 sequence (Q8TD46 25-348)
As to the kind of experiment: Cell binding assay (flow cytometry), U937-CD200R1 cells. Format: cell-based. The settings on record: serial dilution from 100 nM. The procedure:
Binding ability was determined in HH, an endogenous T cell line with high CD200R1 expression, and two additional overexpressing cell lines: U937-CD200R overexpressing cells, generated by intranuclear injection of human CD200R1 CDNA into the monocytic cell line U937 (CRL-1593.2) (Source: UMC Utrecht, the Netherlands) and Jurkat-CD200R overexpressing cells, were also cells engineered using a similar method.
All cell lines were maintained in RPMI 1640 medium supplemented with 10% heat-inactivated FBS and 1% penicillin/streptomycin (P/S) and cell binding was determined in the same manner as in Example 12. Two additional wells were treated with 10 μl of mouse IgG1K (BD, #555751) and 5 μl of commercial CD200R1 antibody (Biolegend, #329308) to determine CD200R1 expression on the cell line surface for cell quality control.
Specific binding ability was determined using P001009 WT and antibody-optimized mutants, P001009v1, P001009v2, P001009v3, and P001009v4. The antibodies were serially diluted 10-fold from a maximum concentration of 100 nM to 10 nM, 1 nM, […], and were added to the pre-seeded cells. […] Using GraphPad Prism software, the EC50 was determined using a nonlinear graph model of log (agonist) vs. response-variable slope, as shown in Table 32.
On the technique in general: Flow cytometry measures light scatter and fluorescence of single cells or particles in a stream.

Test [4] has as its system contact dermatitis animal model. Put plainly: Contact dermatitis animal model (oxazolone). The settings on record: 20 mg/kg intravenously. It is filed as in vivo, C57BL/6 mice. The procedure:
An in vivo contact dermatitis animal model was established to evaluate the anti-inflammatory efficacy of the anti-CD200R1 antibody. Ten-week-old female C57BL/6 mice were used for the contact dermatitis model. The animals were anesthetized and the abdominal hair thereof was removed. The following day, the shaved abdominal area was sensitized with 100 μL of 3% oxazolone in ethanol. Seven days after sensitization, P001009v1 was administered intravenously at a dose of 20 mg/kg. Four hours later, the thickness of both ears was measured. Then, both ears were sensitized with 2% oxazolone in 10 μL of ethanol. The thickness of both ears was measured again at 24 and 48 hours, and changes in ear edema thickness were recorded. Statistical analysis was performed using one-way ANOVA.

B1: P001009: phage display anti-CD200R1 clone; VH SEQ ID NO: 79, VL SEQ ID NO: 94 (antibody, V domains shown)
VH: EVQLLESGGGLVQPGGSLRLSCAASGFTFSSYDMSWVRQAPGKGLEWVSWISHGGGSIYYADSVKGRFTISRDNSKNTLYLQMNSLRAEDTAVYYCARDAPAYSAPLFDYWGQGTLVTVSS
VL: QSVLTQPPSASGTPGQRVTISCSGSSSNIGNNAVNWYQQLPGTAPKLLIYYDSNRPSGVPDRFSGSKSGTSASLAISGLRSEDEADYYCAAWDDSLSGYVFGGGTKLTVL
Take B1: the “binding ability to mouse CD200R1” value in test [1] is on record as “very weak”.

B2: P001009v1: P001009 variant, LC S52 and LC S94 substituted with K and R; VH SEQ ID NO: 79 (antibody, V domains shown)
VH: B1 VH
VL: B1 VL with S53K, S95R
As to B2, in test [2], the “binding ability to human CD200R1 compared to parent” value is “improved”. Further, the “binding ability to U937-CD200R1” value in test [3] is listed as “exhibited binding ability”. Besides, the “anti-inflammatory efficacy after 48 hours” value in test [4] (48 hours) was “maintained”. In test [4] (compared to control group), the “anti-inflammatory response (ear edema thickness)” value is “significant anti-inflammatory response”.
